Measurements as given in US9447149B2, “Methods and compositions for the rapid synthesis of radiometal-labeled probes” (University of Southern California, priority 2012, dated 2016).

Columns and labels:
[1] = target: T1, integrin αvβ3 (Homo sapiens, UniProt P05106+P06756); test: Integrin αvβ3 receptor binding assay (competitive displacement of 125I-echistatin on U87MG cells); conditions: 125I-echistatin radioligand, 3 h, room temperature
T1 construct: host or cells: U87MG human glioblastoma cells (whole cells in suspension)

[2] = Partition coefficient (1-octanol/PBS); assay type: physicochemical; conditions: 1-octanol / PBS pH 7.4, triplicate
Experimental: The partition coefficient value was expressed as log P. Log P of [^64Cu]1 was determined by measuring the distribution of radioactivity in 1-octanol and PBS. Approximately 111 kBq of [^64Cu]1 in 2 μL of PBS (pH=7.4) was added to a vial containing 0.5 mL 1-octanol and 0.5 mL of PBS (pH=7.4). After vigorously vortexing for 10 min, the vial was centrifuged at 12,500 rpm for 5 min to ensure the complete separation of layers. 200 μL of each layer was pipetted into test tubes, and radioactivity was measured using a gamma counter (Perkin-Elmer Packard Cobra). The mean value was calculated from triplicate experiments. The log P value of [^64Cu]1 was determined to be […].

[3] = test system: U87MG human glioma xenograft tumors; test: in vivo; design: species or system mice; conditions: mouse, 10 mg/kg
Experimental: (§1) The in vivo tumor-targeting efficacy of [^64Cu]1 was evaluated in nude mice bearing U87MG human glioma xenograft tumors (n=3) by static microPET scans at 2, 4, and 20 h after tail-vain injection of [^64Cu]1. U87MG tumors were clearly visualized at all time points examined. […] At 2 h post injection, the tumor/liver, tumor/kidneys, and tumor/muscle ratios reached 2.82±0.76, 2.22±1.49, and 11.79±2.65, respectively. Consequently, the high tumor-to-nontumor ratios provided excellent contrast for PET imaging. Blocking experiment was conducted to confirm the integrin αvβ3 specificity of [^64Cu]1.
(§2) All animal studies were approved by the University of Southern California Institutional Animal Care and Use Committee. Female athymic nude mice (about 4-6 weeks old, with a body weight of 20-25 g) were obtained from Harlan Laboratories (Livermore, Calif.). The U87MG human glioma xenograft model was generated by subcutaneous injection of 5×10^6 U87MG human glioma cells into the front flank of female athymic nude mice. The tumors were allowed to grow 3-5 weeks until 200-500 mm^3 in volume. Tumor growth was followed by caliper measurements of the perpendicular dimensions.
(§3) MicroPET scans and imaging analysis were performed using a rodent scanner (microPET R4 scanner; Siemens Medical Solutions). About 7.4 MBq of [^64Cu]1 was intravenously injected into each mouse (n=3) under isoflurane anesthesia. Five-minute static scans were acquired at 2, 4, and 20 h pi. The images were reconstructed by a two-dimensional ordered-subsets expectation maximum (OSEM) algorithm. For each microPET scan, regions of interest were drawn over the tumor, normal tissue, and major organs on the decay-corrected whole-body coronal images. The radioactivity concentration (accumulation) within the tumor, muscle, liver, and kidneys were obtained from the mean value within the multiple regions of interest and then converted to % ID/g.

[4] = in vivo; design: species or system mice; conditions: female, athymic nude, mouse, iv, 7.4 MBq, total radioactivity
Experimental: as §1, §2, §3

[5] = Probe stability in PBS by radio-HPLC; assay type: physicochemical; conditions: for parent [64Cu]1 remaining (radiochemical purity): PBS, room temperature
Experimental: The in vitro stability of [^64Cu]1 was evaluated in PBS buffer by radio-HPLC. […] This high stability is attributed to Sar cage in the conjugate. In addition, it is known that the U87MG cell line over-expresses integrin αvβ3 receptor [13].
All chemicals and solvents were obtained from Aldrich (Milwaukee, Wis., USA) and used without further purification. 1,8-Diamino-3,6,10,13,16,19-hexaazabicyclo[6.6.6]-eicosine was purchased from Areva Med (Dallas, Tex.). ^125I-Echistatin was obtained from Perkin-Elmer (Waltham, Mass.). ^1H and ^13C nuclear magnetic resonance (NMR) were recorded on a Varian 400 MHz spectrometer. Mass spectrum was obtained on a ThermoElectron Finnigan LTQ mass spectrometer equipped with an electrospray ionization (ESI) source (Thermo Scientific, USA). HPLC analyses were carried out on an analytical reversed-phase high performance liquid chromatography (HPLC) system equipped with a dual UV absorbance detector (Waters 2487) using a phenomenex C18 RP (250×4.6 mm 5 micron). The flow was 1 mL/min, with the mobile phase starting from 100% solvent A (0.1% TFA in water), followed by a gradient mobile phase to 20% solvent A and 80% solvent B (0.1% TFA in acetonitrile) at 30 min. The UV absorbance was monitored at 214 nm and the identification of the peptides was confirmed based on the UV spectrum using a PDA detector. The radioactivity was detected by a model of Ludlum 2200 single-channel radiation detector. The stability study was performed under the same HPLC condition. MicroPET scans were performed on a microPET R4 rodent model scanner (Siemens Medical Solutions USA, Inc., Knoxyille, Tenn.). The scanner has a computer-controlled bed and 10.8-cm transaxial and 8-cm axial fields of view (FOVs). It has no septa and operates exclusively in the 3-dimensional (3D) list mode. Animals were placed near the center of the FOV of the scanner.
The stability of [^64Cu]1 was tested in PBS. In brief, 3.7 MBq of the [^64Cu]1 was pipetted into 0.5 mL of the PBS and incubated in PBS at room temperature. At various time points (1, 6, and 24 h), an aliquot of the solution was taken and the radiochemical purity was determined by reverse-phase HPLC under identical conditions. The parent [^64Cu]1 was determined to be >99%, 98%, and 96% at 1, 6, and 24 h, respectively.

Structure (SMILES) | IC50 [1] [nM] | logP [2] | uptake values of normal organs (liver, kidneys, muscle) with blocking [3] | tissue uptake at 2 h [4] [%ID/g] | tissue uptake at 4 h [4] [%ID/g] | tissue uptake at 20 h [4] [%ID/g] | tissue to tissue ratio at 2 h ([4]; tumor/kidneys ratio) | tissue to tissue ratio at 2 h ([4]; tumor/liver ratio) | tissue to tissue ratio at 2 h ([4]; tumor/muscle ratio) | release of 64Cu from the conjugate ([5]; PBS buffer, over a period of 24 h, radio-HPLC) | parent [64Cu]1 remaining (radiochemical purity) ([5]; 1 h) [%] | parent [64Cu]1 remaining (radiochemical purity) ([5]; 6 h) [%] | parent [64Cu]1 remaining (radiochemical purity) ([5]; 24 h) [%]
N=C(N)NCCC[C@@H]1NC(=O)[C@H](CCCCNC(=O)C2O[C@H](CNC(=O)Cn3nnc4c3-c3ccccc3CN(C(=O)CCNC(=O)CCOCCOCCOCCOCCOCCC(=O)N[C@]35CNCCNC[C@](N)(CNCCNC3)CNCCNC5)c3ccccc3-4)[C@H](O)C(O)[C@@H]2O)NC(=O)[C@@H](Cc2ccccc2)NC(=O)[C@H](CC(=O)O)NC(=O)CNC1=O (stereo partly shown) [compound 1] | 170 ± 3 |  |  |  |  |  |  |  |  |  |  |  | 
N=C(N)NCCC[C@@H]1NC(=O)[C@H](CCCCNC(=O)[C@H]2O[C@@H](CNC(=O)Cn3nnc4c3-c3ccccc3CN(C(=O)CCNC(=O)CCOCCOCCOCCOCCOCCC(=O)NC35CNCCNCC(N)(CNCCNC3)CNCCNC5)c3ccccc3-4)[C@H](O)[C@@H](O)[C@H]2O)NC(=O)[C@@H](Cc2ccccc2)NC(=O)[C@H](CC(=O)O)NC(=O)CNC1=O [[^64Cu]1, metal not drawn] |  | 4.94 ± 0.1 | lower than those without coinjection of c(RGDyK) | 4.96 ± 0.65 | 4.11 ± 0.48 | 2.41 ± 0.31 | 2.22 ± 1.49 | 2.82 ± 0.76 | 11.8 ± 2.65 | no release of ^64Cu from the conjugate | > 99 | 98 | 96
